{
  "source": "patent US20190144498A1",
  "about": "(Johns Hopkins, published 2019)",
  "target": "T1, endogenous GlpG in living E. coli cells (Escherichia coli, UniProt P09391 1-276)",
  "T1 sequence (looked up)": "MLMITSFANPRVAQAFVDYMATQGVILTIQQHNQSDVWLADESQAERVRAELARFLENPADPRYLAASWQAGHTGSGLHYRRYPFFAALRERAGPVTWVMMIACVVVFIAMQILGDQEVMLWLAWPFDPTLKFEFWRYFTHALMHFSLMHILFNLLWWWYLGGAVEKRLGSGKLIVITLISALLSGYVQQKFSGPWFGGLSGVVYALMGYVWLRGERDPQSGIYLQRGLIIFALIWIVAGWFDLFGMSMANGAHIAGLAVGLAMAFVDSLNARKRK",
  "assay": "cell-based or functional assay",
  "note": "* marks the point of attachment. B(OH)2 = OB(O)*",
  "data": [
    {"binder": "Ac-VRMA-{B(OH)2} (SMILES CSCC[C@H](NC(=O)[C@H](CCCNC(=N)N)NC(=O)[C@@H](NC(C)=O)C(C)C)C(=O)N[C@@H](C)C(=O)B(O)O)", "note": "[Ac-VRMA-B(OH)2]", "values": [
      {"measurement": "EC50 of inhibition of endogenous GlpG activity (TatA-Flag cleavage) in living E. coli cells", "result": "< 1000", "unit": "nM"},
      {"measurement": "fold increase in potency of GlpG inhibition relative to the aldehyde (Ac-VRMA-CHO)", "result": "> 100", "unit": "fold"},
      {"measurement": "fold increase in potency of GlpG inhibition relative to the chloromethylketone (Ac-VRMA-CMK)", "result": "> 400", "unit": "fold"}
    ]}
  ]
}
